Source: patent EP1230261B1 (LUDWIG INSTITUTE FOR CANCER RESEARCH, dated 2008)

The binders below were run against T1, HLA-A*0201 molecules on T2 cells (CEMX721.174.T2) (human) (assay: cell-based or functional assay).

Binder	Relative competitor activity (inhibition of CTL lysis of T2 cells given SEQ ID NO:4)
SLLMWITQL [NY-ESO-1 157-C165L peptide SLLMWITQL (SEQ ID NO:7)]	0.5 relative to FluMA 58-66 (SEQ ID NO:5)
QLSLLMWIT [NY-ESO-1 155-163 peptide QLSLLMWIT (SEQ ID NO:3)]	0.01 relative to FluMA 58-66 (SEQ ID NO:5)
SLLMWITQCFL [NY-ESO-1 157-167 peptide SLLMWITQCFL (SEQ ID NO:1)]	0.04 relative to FluMA 58-66 (SEQ ID NO:5)

Target: T1, HLA-A*0201 molecules on T2 cells …
Assay: cell-based or functional assay
Remark: another data set of the same source

Binder	Competitor activity [mM] 50%	Relative competitor activity to SEQ ID NO:2
SLLMWITAA [peptide SLLMWITAA (SEQ ID NO:27)]	0.00018 mM	1500 relative to SEQ ID NO:2
SLLMWITQL [NY-ESO-1 157-C165L peptide SLLMWITQL (SEQ ID NO:7)]	0.002 mM	130 relative to SEQ ID NO:2
SLLMAITQA [peptide SLLMAITQA (SEQ ID NO:24)]	0.004 mM	68 relative to SEQ ID NO:2
SLLAWITQA [peptide SLLAWITQA (SEQ ID NO:23)]	< 0.0001 mM	> 2700 relative to SEQ ID NO:2
SALMWITQA [peptide SALMWITQA (SEQ ID NO:21)]	0.01 mM	27 relative to SEQ ID NO:2
SLLMWATQA [peptide SLLMWATQA (SEQ ID NO:25)]	0.01 mM	27 relative to SEQ ID NO:2
SLLMWITQV [NY-ESO-1 157-C165V peptide SLLMWITQV (SEQ ID NO:8)]	6e-05 mM	–
SLLMWITQS [peptide SLLMWITQS (SEQ ID NO:19)]	0.02 mM	13 relative to SEQ ID NO:2
SLLMWIAQA [peptide SLLMWIAQA (SEQ ID NO:26)]	0.0002 mM	1350 relative to SEQ ID NO:2
ALLMWITQA [peptide ALLMWITQA (SEQ ID NO:20)]	0.0013 mM	208 relative to SEQ ID NO:2
QLSLLMWIT [NY-ESO-1 155-163 peptide QLSLLMWIT (SEQ ID NO:3)]	0.03 mM	9 relative to SEQ ID NO:2
SLLMWITQCFL [NY-ESO-1 157-167 peptide SLLMWITQCFL (SEQ ID NO:1)]	0.02 mM	13 relative to SEQ ID NO:2
SLAMWITQA [peptide SLAMWITQA (SEQ ID NO:22)]	0.001 mM	270 relative to SEQ ID NO:2

The binders below were run against T1, HLA-A*0201 molecules on T2 cells … (assay: functional competition assay).

Binder	fold reduction in peptide binding (against the base peptide SEQ ID NO:6)
SALMWITQA [peptide SALMWITQA (SEQ ID NO:21)]	100 fold
